T1: hu-CD96 isoform 2 on CHO cells (human, UniProt P40200 22-585)
T1 construct: also called CHO-CD96 (isoform 2); CD96-CHOs
T1 sequence: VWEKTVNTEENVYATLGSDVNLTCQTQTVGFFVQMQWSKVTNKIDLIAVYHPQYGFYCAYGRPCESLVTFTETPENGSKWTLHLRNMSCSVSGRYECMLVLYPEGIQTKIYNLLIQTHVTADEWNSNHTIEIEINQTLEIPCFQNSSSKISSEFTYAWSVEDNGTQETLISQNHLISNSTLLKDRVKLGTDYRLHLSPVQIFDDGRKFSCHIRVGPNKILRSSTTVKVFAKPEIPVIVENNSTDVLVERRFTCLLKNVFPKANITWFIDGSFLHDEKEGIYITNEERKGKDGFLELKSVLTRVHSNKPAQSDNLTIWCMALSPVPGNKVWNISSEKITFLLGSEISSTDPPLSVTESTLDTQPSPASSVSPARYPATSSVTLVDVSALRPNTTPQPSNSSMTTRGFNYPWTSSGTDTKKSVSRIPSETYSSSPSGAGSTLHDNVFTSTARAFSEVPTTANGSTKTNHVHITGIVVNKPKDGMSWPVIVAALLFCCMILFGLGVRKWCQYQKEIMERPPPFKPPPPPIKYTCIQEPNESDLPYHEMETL

T2: hu-CD96 isoform 1 on HEK293T cells (human, UniProt P40200 22-585)
T2 construct: Origene RC213845, transient expression; also called HEK293T-CD96 (iso1)
T2 sequence: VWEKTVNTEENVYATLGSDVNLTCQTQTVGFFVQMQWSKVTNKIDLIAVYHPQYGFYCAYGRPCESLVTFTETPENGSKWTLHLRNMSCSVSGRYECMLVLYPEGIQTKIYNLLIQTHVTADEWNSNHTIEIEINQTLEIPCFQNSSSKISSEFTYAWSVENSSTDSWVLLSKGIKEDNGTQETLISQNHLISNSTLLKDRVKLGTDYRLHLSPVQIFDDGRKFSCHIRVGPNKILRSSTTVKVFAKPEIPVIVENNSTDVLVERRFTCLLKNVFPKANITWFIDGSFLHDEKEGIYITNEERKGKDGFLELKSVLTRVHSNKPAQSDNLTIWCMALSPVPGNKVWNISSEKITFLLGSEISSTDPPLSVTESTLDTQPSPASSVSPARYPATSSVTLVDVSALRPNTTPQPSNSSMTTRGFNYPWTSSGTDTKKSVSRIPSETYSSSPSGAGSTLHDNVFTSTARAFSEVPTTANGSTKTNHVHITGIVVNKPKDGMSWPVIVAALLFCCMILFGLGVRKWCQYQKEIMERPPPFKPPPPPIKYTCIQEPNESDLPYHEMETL

T3: cy-CD96 (soluble, extracellular domain) (cynomolgus monkey, UniProt P40200 22-516 (human entry), biotinylated in Octet and blocking ELISA)
T3 construct: the assays name only cy-CD96; also called biotinylated cy-CD96
T3 chain: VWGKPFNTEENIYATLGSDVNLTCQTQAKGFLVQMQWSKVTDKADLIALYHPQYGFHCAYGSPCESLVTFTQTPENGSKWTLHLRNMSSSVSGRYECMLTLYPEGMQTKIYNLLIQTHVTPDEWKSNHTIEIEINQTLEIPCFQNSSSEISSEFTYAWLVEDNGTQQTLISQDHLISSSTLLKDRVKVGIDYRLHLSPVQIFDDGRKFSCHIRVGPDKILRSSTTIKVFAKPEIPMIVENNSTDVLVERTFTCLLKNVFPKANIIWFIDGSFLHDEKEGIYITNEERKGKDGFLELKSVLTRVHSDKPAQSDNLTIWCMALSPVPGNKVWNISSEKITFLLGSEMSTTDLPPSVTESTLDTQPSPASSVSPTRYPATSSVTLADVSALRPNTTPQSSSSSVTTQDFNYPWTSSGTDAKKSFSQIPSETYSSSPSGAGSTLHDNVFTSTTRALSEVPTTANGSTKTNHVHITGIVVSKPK


Experiments:
[1] = biological target: T1, hu-CD96 isoform 2 on CHO cells; test: FACS, Ab 10 nM
Experimental: (§1) Isoform 1 of hu-CD96 (Origene, catalog #RC213845) was transiently expressed in HEK293T cells following standard lipofectamine or Fugene transfection protocol. […] Cells were washed, and binding was detected by incubation with anti-mouse IgG-FITC (Biolegend, catalog #406001) for 20 minutes at 4° C. Cell binding was analyzed by flow cytometry with a CytoFLEX (Beckman Coulter). Binding curves were calculated as a percentage of cells positive for bound antibody.
Isoform 2 of hu-CD96 (DNA construct: Origene, catalog #RC221005) was expressed on a single-cell-clone-derived CHO stable cell line. Binding of the anti-CD96 antibodies to the CHO cells were determined as described above with isoform 1 of hu-CD96.

[2] = biological target: T2, hu-CD96 isoform 1 on HEK293T cells; test: FACS, % positive curve
Experimental: as §1

[3] = biological target: T2, hu-CD96 isoform 1 on HEK293T cells; test: FACS, Ab 10 nM
Experimental: as §1

[4] = biological target: T3, cy-CD96 (soluble, extracellular domain); test: phage competition ELISA, soluble CD96 vs coated hu-CD96
Procedure, shortened: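 Phage supernatant or purified phage was preincubated 2 h at room temperature with soluble hu-CD96 or cy-CD96 in BSA/Tween ELISA buffer, then moved to hu-CD96-coated wells for 15 min to capture unbound phage. Detection used HRP anti-M13 and TMB at OD450. Phage IC50 came from OD450 versus serially diluted antigen concentration.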

Binder	% positive [1]	EC50 [2]	% positive [3]	IC50 [4]
9H4, purified hybridoma antibody (antibody, V domains shown, murine hybridoma IgG) VH: EVQLLETGGGLVKSGGSLKLSCAASGFTFSDYYMYWVRQTPEKRLEWVAAISDDGTYTYYPDSVKGRFTISRDNANNYLYLQMSSLKSEDTAIYYCAKAGSYDYFDVWGAGTTVTVSS VL: DIVLTQSPASLAVSLGQRAIISCKASQSVTFADTGLMHWYQQKPGQQPKLLIYRASNLEVGVPTRFSGSGSGTDFTLNIHPVEEEDVATYYCQQSREYPWTFGGGTKLEIK	46.1%	2.1 nM	48.4%	
7E5, purified hybridoma antibody (antibody, V domains shown, murine hybridoma IgG) VH: QVQLKESGPGLVAPSQSLSIICTVSGFSLTNYGIHWIRQPPGKGLEWLGIIWAGGSTNYNSALMSRLTISKDNSKSQVFLKMNSLQTNDTAIYYCARVSMMGFAYWGQGTLVTVSA VL: QAVVTQESALTTSPGETVTLTCRSSTGAVTTSNYANWVQEKPDHLFTGLIGGTNNRAPGVPARFSGSLIGDKAALTITGAQTEDEAIYFCSLWYGSHWVFGGGTKLTVL	56.1%	0.71 nM	47.4%	
10G1 (clone 10G1.3G8), purified hybridoma antibody (antibody, V domains shown, murine hybridoma IgG) VH: QIQLVQSGPELKKPGETVKISCKASGYPFTTYGMSWVKQAPGKGLKWMGWINTDSGVPTYADDFKGRFAFSLETSANTAYLQINSLKNEDAATYFCARNIYYGWGNFDYWGQGTILTVSS VL: DILMTQSPTTLSVTPGETVSLSCRASQDIYRNLHWYQQKSQGTPRLLIKHASDSISGIPSRFTGSGSGTDFTLSINSVKPEDEGIYYCLQGYSMPYTFGGGTKLEIK	39.2%	0.24 nM	53.4%	
mAb1.v7 IgG (humanized 12F8) (antibody, V domains shown, human IgG1 N297G) VH: EVQLVQSGAEVKKPGASVKVSCKASGFTFTNNWMHWVRQAPGQGLEWIGMIHPNSGITNINEKFKNRVTMTTDTSTSTAYMELRSLRSEDTAVYYCRSDGTYEGYFDYWGQGTLVTVSS VL: DIQLTQSPSSLSASVGDRVTITCKASQNVGTAIVWYQQKPGKAPKVLIYSASTRYTGVPSRFSGSGSGTDFTLTISSLQPEDFATYYCQQYSSSPLTFGQGTKVEIKG	44.8%	2.6 nM	48.8%	

Now from value to binder:

% positive [1]	EC50 [2]	% positive [3]	IC50 [4]	Binder
			1.8 nM	mAb1.v7.2 Fab (Fab, V domains shown, also called M34R/P52aF/T97V) VH: EVQLVQSGAEVKKPGASVKVSCKASGFTFTNNWRHWVRQAPGQGLEWIGMIHFNSGITNINEKFKNRVTMTTDTSTSTAYMELRSLRSEDTAVYYCRSDGVYEGYFDYWGQGTLVTVSS VL: DIQLTQSPSSLSASVGDRVTITCKASQNVGTAIVWYQQKPGKAPKVLIYSASTRYTGVPSRFSGSGSGTDFTLTISSLQPEDFATYYCQQYSSSPLTFGQGTKVEIK
			1.6 nM	mAb1.v7.16 Fab (Fab, V domains shown, also called M34R/T97V) VH: EVQLVQSGAEVKKPGASVKVSCKASGFTFTNNWRHWVRQAPGQGLEWIGMIHPNSGITNINEKFKNRVTMTTDTSTSTAYMELRSLRSEDTAVYYCRSDGVYEGYFDYWGQGTLVTVSS VL: DIQLTQSPSSLSASVGDRVTITCKASQNVGTAIVWYQQKPGKAPKVLIYSASTRYTGVPSRFSGSGSGTDFTLTISSLQPEDFATYYCQQYSSSPLTFGQGTKVEIK
			0.37 nM	mAb1.v7.9 Fab (Fab, V domains shown, also called M34R/P52aM/T97V) VH: EVQLVQSGAEVKKPGASVKVSCKASGFTFTNNWRHWVRQAPGQGLEWIGMIHMNSGITNINEKFKNRVTMTTDTSTSTAYMELRSLRSEDTAVYYCRSDGVYEGYFDYWGQGTLVTVSS VL: DIQLTQSPSSLSASVGDRVTITCKASQNVGTAIVWYQQKPGKAPKVLIYSASTRYTGVPSRFSGSGSGTDFTLTISSLQPEDFATYYCQQYSSSPLTFGQGTKVEIK
			0.4 nM	mAb1.v7.70 Fab (Fab, V domains shown, also called N32R/P52aA/T97V) VH: EVQLVQSGAEVKKPGASVKVSCKASGFTFTNRWMHWVRQAPGQGLEWIGMIHANSGITNINEKFKNRVTMTTDTSTSTAYMELRSLRSEDTAVYYCRSDGVYEGYFDYWGQGTLVTVSS VL: DIQLTQSPSSLSASVGDRVTITCKASQNVGTAIVWYQQKPGKAPKVLIYSASTRYTGVPSRFSGSGSGTDFTLTISSLQPEDFATYYCQQYSSSPLTFGQGTKVEIK
			0.3 nM	mAb1.v7.48 Fab (Fab, V domains shown, also called N32R/P52aH/T97V) VH: EVQLVQSGAEVKKPGASVKVSCKASGFTFTNRWMHWVRQAPGQGLEWIGMIHHNSGITNINEKFKNRVTMTTDTSTSTAYMELRSLRSEDTAVYYCRSDGVYEGYFDYWGQGTLVTVSS VL: DIQLTQSPSSLSASVGDRVTITCKASQNVGTAIVWYQQKPGKAPKVLIYSASTRYTGVPSRFSGSGSGTDFTLTISSLQPEDFATYYCQQYSSSPLTFGQGTKVEIK

— patent publication US12365732 (23ANDME, dated 2025)
